For experiment [1], the target named is T1, FcγRIIa H (human, UniProt P12318 34-217).
T1 construct: extracellular domain; Soluble extracellular domain with C-terminal His tag, expressed in FreeStyle293 cells; also called FcgRIIa H; 2aH; not shown: C-terminal His tag
T1 sequence (looked up): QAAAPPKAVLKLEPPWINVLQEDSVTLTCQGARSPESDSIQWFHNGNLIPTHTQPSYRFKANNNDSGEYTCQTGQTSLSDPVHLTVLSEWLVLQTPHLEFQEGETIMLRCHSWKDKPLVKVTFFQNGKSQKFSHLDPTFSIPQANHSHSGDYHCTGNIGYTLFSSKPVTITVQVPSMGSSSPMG
In words: SPR (Biacore), antibody captured, FcγR as analyte; relative to HeCon Ab. Here is the method:
(§1) The heterodimerized antibodies He Abs in which one of the H chains was introduced with an alteration were assayed for their binding activities to each activating FcγR and inhibitory FcγR according to the method described in Example 4. […] The activating FcγRs in FIGS. 26, 27, 28, and 29 are FcγRIa, FcγRIIa (R), FcγRIIa (H), and FcγRIIIa, respectively.
(§2) Analysis of interaction between objective antibody and the FcγR was carried out using Biacore T100 (GE Healthcare). HBS-EP+ (GE Healthcare) was used as the running buffer, and the measurement temperature was set to 25° C. Chips produced by immobilizing the antigen peptide by the amine coupling method to a Series S Sencor Chip CM5 (GE Healthcare), or alternatively, chips produced by allowing preliminarily biotinylated antigen peptides to interact with and immobilize onto a Series S Sensor Chip SA (certified) (GE Healthcare) were used. Antibodies of interest were captured onto an antigen peptide-immobilized chip, and allowed to interact to each FcγR diluted with running buffer. To regenerate and repeatedly use the chip, the antibodies captured on the chip were washed off by reacting 10 mM glycine-HCl, pH 1.5.
On the technique in general: In SPR one partner is held on a chip, and binding of the other changes the refractive index at the surface.

Experiment [2] concerns the target T2, FcγRIIb (human, UniProt P31994 43-217).
T2 construct: extracellular domain; Soluble extracellular domain with C-terminal His tag, expressed in FreeStyle293 cells; also called FcgRIIb; 2b; not shown: C-terminal His tag
T2 sequence (looked up): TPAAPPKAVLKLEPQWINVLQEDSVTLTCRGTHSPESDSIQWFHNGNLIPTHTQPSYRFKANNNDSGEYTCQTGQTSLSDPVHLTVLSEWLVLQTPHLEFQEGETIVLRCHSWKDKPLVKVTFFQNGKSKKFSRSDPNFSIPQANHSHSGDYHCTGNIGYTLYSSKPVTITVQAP
The description is as above. The protocol: as §1, §2

B1: GpH7-A5/GpH7-B3 variant G237_19Q/GpL16-k0 (antibody, human IgG1, kappa)
heavy 1: not shown
heavy 2: not shown
light: DIVMTQSPLSLPVTPGEPASISCQASESLVHSNRNTYLHWYLQKPGQSPQLLIYKVSNRFSGVPDRFSGSGSGTDFTLKISRVEAEDVGVYYCSQNTHVPPTFGQGTKVEIERTVAAPSVFIFPPSDEQLKSGTASVVCLLNNFYPREAKVQWKVDNALQSGNSQESVTEQDSKDSTYSLSSTLTLSKADYEKHKVYACEVTHQGLSSPVTKSFNRGEC
notes: Heterodimerized anti-glypican-3 IgG1; alteration in the GpH7-B3 chain only; also called He Ab
Regarding B1, in experiment [1], the He/Con_2aH was 26.5 % of GpH7-A5/GpH7-B3/GpL16-k0 (=100). Further, the He/Con_2b in experiment [2] is 108 % of GpH7-A5/GpH7-B3/GpL16-k0 (=100).

B2: GpH7-A5/GpH7-B3 variant G237_02A/GpL16-k0 (antibody, human IgG1, kappa)
heavy 1: not shown
heavy 2: not shown
light: DIVMTQSPLSLPVTPGEPASISCQASESLVHSNRNTYLHWYLQKPGQSPQLLIYKVSNRFSGVPDRFSGSGSGTDFTLKISRVEAEDVGVYYCSQNTHVPPTFGQGTKVEIERTVAAPSVFIFPPSDEQLKSGTASVVCLLNNFYPREAKVQWKVDNALQSGNSQESVTEQDSKDSTYSLSSTLTLSKADYEKHKVYACEVTHQGLSSPVTKSFNRGEC
notes: as for B1
With B2, the He/Con_2aH in experiment [1] was 34 % of GpH7-A5/GpH7-B3/GpL16-k0 (=100). In addition, the He/Con_2b in experiment [2] is 124 % of GpH7-A5/GpH7-B3/GpL16-k0 (=100).

B3: GpH7-A5/GpH7-B3 variant P238_15Y/GpL16-k0 (antibody, human IgG1, kappa)
heavy 1: not shown
heavy 2: not shown
light: DIVMTQSPLSLPVTPGEPASISCQASESLVHSNRNTYLHWYLQKPGQSPQLLIYKVSNRFSGVPDRFSGSGSGTDFTLKISRVEAEDVGVYYCSQNTHVPPTFGQGTKVEIERTVAAPSVFIFPPSDEQLKSGTASVVCLLNNFYPREAKVQWKVDNALQSGNSQESVTEQDSKDSTYSLSSTLTLSKADYEKHKVYACEVTHQGLSSPVTKSFNRGEC
notes: as for B1
Consider B3, for which, in experiment [1], the He/Con_2aH was 59.8 % of GpH7-A5/GpH7-B3/GpL16-k0 (=100). Also, in experiment [2], the He/Con_2b was 218 % of GpH7-A5/GpH7-B3/GpL16-k0 (=100).

B4: GpH7-A5/GpH7-B3 variant P238_14T/GpL16-k0 (antibody, human IgG1, kappa)
heavy 1: not shown
heavy 2: not shown
light: DIVMTQSPLSLPVTPGEPASISCQASESLVHSNRNTYLHWYLQKPGQSPQLLIYKVSNRFSGVPDRFSGSGSGTDFTLKISRVEAEDVGVYYCSQNTHVPPTFGQGTKVEIERTVAAPSVFIFPPSDEQLKSGTASVVCLLNNFYPREAKVQWKVDNALQSGNSQESVTEQDSKDSTYSLSSTLTLSKADYEKHKVYACEVTHQGLSSPVTKSFNRGEC
notes: as for B1
Turning to B4, the He/Con_2aH in experiment [1] was 37.7 % of GpH7-A5/GpH7-B3/GpL16-k0 (=100). For the same molecule, in experiment [2], the He/Con_2b is 50.7 % of GpH7-A5/GpH7-B3/GpL16-k0 (=100).

B5: GpH7-A5/GpH7-B3 variant S239_03V/GpL16-k0 (antibody, human IgG1, kappa)
heavy 1: not shown
heavy 2: not shown
light: DIVMTQSPLSLPVTPGEPASISCQASESLVHSNRNTYLHWYLQKPGQSPQLLIYKVSNRFSGVPDRFSGSGSGTDFTLKISRVEAEDVGVYYCSQNTHVPPTFGQGTKVEIERTVAAPSVFIFPPSDEQLKSGTASVVCLLNNFYPREAKVQWKVDNALQSGNSQESVTEQDSKDSTYSLSSTLTLSKADYEKHKVYACEVTHQGLSSPVTKSFNRGEC
notes: as for B1
Turning to B5, the He/Con_2aH in experiment [1] is 91 % of GpH7-A5/GpH7-B3/GpL16-k0 (=100). For the same molecule, the He/Con_2b in experiment [2] is 108 % of GpH7-A5/GpH7-B3/GpL16-k0 (=100).

B6: GpH7-A5/GpH7-B3 variant S267_08L/GpL16-k0 (antibody, human IgG1, kappa)
heavy 1: not shown
heavy 2: not shown
light: DIVMTQSPLSLPVTPGEPASISCQASESLVHSNRNTYLHWYLQKPGQSPQLLIYKVSNRFSGVPDRFSGSGSGTDFTLKISRVEAEDVGVYYCSQNTHVPPTFGQGTKVEIERTVAAPSVFIFPPSDEQLKSGTASVVCLLNNFYPREAKVQWKVDNALQSGNSQESVTEQDSKDSTYSLSSTLTLSKADYEKHKVYACEVTHQGLSSPVTKSFNRGEC
notes: as for B1
On to B6, for which, in experiment [1], the He/Con_2aH is 29 % of GpH7-A5/GpH7-B3/GpL16-k0 (=100). In addition, the He/Con_2b in experiment [2] is 109 % of GpH7-A5/GpH7-B3/GpL16-k0 (=100).

B7: GpH7-A5/GpH7-B3 variant P238_20W/GpL16-k0 (antibody, human IgG1, kappa)
heavy 1: not shown
heavy 2: not shown
light: DIVMTQSPLSLPVTPGEPASISCQASESLVHSNRNTYLHWYLQKPGQSPQLLIYKVSNRFSGVPDRFSGSGSGTDFTLKISRVEAEDVGVYYCSQNTHVPPTFGQGTKVEIERTVAAPSVFIFPPSDEQLKSGTASVVCLLNNFYPREAKVQWKVDNALQSGNSQESVTEQDSKDSTYSLSSTLTLSKADYEKHKVYACEVTHQGLSSPVTKSFNRGEC
notes: as for B1
Consider B7, for which the He/Con_2aH in experiment [1] is 59.5 % of GpH7-A5/GpH7-B3/GpL16-k0 (=100). For the same molecule, the He/Con_2b in experiment [2] is 123 % of GpH7-A5/GpH7-B3/GpL16-k0 (=100).

B8: GpH7-A5/GpH7-B3 variant L234_09D/GpL16-k0 (antibody, human IgG1, kappa)
heavy 1: not shown
heavy 2: not shown
light: DIVMTQSPLSLPVTPGEPASISCQASESLVHSNRNTYLHWYLQKPGQSPQLLIYKVSNRFSGVPDRFSGSGSGTDFTLKISRVEAEDVGVYYCSQNTHVPPTFGQGTKVEIERTVAAPSVFIFPPSDEQLKSGTASVVCLLNNFYPREAKVQWKVDNALQSGNSQESVTEQDSKDSTYSLSSTLTLSKADYEKHKVYACEVTHQGLSSPVTKSFNRGEC
notes: as for B1
Consider B8, for which the He/Con_2aH in experiment [1] is 89.9 % of GpH7-A5/GpH7-B3/GpL16-k0 (=100). Moreover, the He/Con_2b in experiment [2] was 150 % of GpH7-A5/GpH7-B3/GpL16-k0 (=100).

The values above are taken from patent publication US20180155451A1 (published 2018).
